According to paper PMC2114473:

How the values were obtained:
Test in all cases: radioligand binding
[1] = target: type III collagen, pepsinized
[2] = target: type II collagen, pepsinized
[3] = target: type I collagen, pepsinized

cpm bound [1]: 4940 cpm | cpm bound [2]: 5320 cpm | cpm bound [3]: 5320 cpm
Substance: human thrombospondin (TSP) (from UniProt P07996 19-1170) (natural protein)
